Test results published in patent US20230399397A1 (EWHA UNIVERSITY INDUSTRY COLLABORATION FOUNDATION, published 2023).

What was measured:
[1] = biological target: T1, human OSCAR-Fc (fusion of ectodomain of human-derived OSCAR protein and Fc domain of human immunoglobulin … (human)); assay: ELISA, periplasm extract of the scFv clone on coated hOSCAR-Fc
T1 construct: also called hOSCAR-Fc; hOSCAR
Method: (§1) To select anti-OSCAR antibodies via ELISA screening, first, 200 μL of SB-carbenicillin was added to each well of a 96-well microplate, and E. coli colonies obtained in the third and fourth panning processes were added thereto, followed by incubation at 37° C. for 2 hours while stirring. Using a plate replication pin tool, the cultured clones were transferred to a new microplate, IPTG was added to each well in which E. coli was cultured to a final concentration of 1 mM, followed by incubation […] while stirring. Then, the microplate was centrifuged and the supernatant discarded, and then precipitated E. coli was suspended in 40 μL of ice-cold 1× TES (20% sucrose, 50 mM Tris, 1 mM EDTA, pH 8.0) per well. Then, […] was added to each well, mixed well, and left on ice for 30 minutes, followed by centrifugation of the microplate to obtain a periplasm extract.
(§2) Subsequently, 25 μL of human and mouse OSCAR-Fc and human IgG each diluted in PBS to a concentration of 2 μg/mL were added to each well of a 96-well plate for ELISA and left to stand at 37° C. for 1 hour such that an antigen was adsorbed onto the surface of the well. […] Once a blue color was clearly developed, reaction was terminated by adding 25 μL of 1 N aqueous sulfuric acid solution to each well, and a color change signal was measured using absorbance at a wavelength of 450 nm. […]

[2] = biological target: T2, mouse OSCAR-Fc (fusion of ectodomain of mouse-derived OSCAR protein and Fc domain of human immunoglobulin … (mouse)); assay: ELISA, periplasm extract of the scFv clone on coated mOSCAR-Fc
T2 construct: also called mOSCAR-Fc; mOSCAR
Method: as §1, §2

[3] = biological target: T1, human OSCAR-Fc (fusion of ectodomain of …); assay: competitive ELISA, IgG premixed with OSCAR-Fc, on coated collagen
Method: (§3) Specifically, 25 μL of collagen (collagen type I from rat tail) diluted with PBS to a concentration of 2 μg/mL was added to an ELISA plate and adsorbed onto the ELISA plate by leaving to stand at 4° C. overnight. The surface onto which collagen was not adsorbed was protected by using a 3% milk powder solution. Subsequently, the purified anti-OSCAR IgG antibody and human or mouse OSCAR-Fc [fusion of ectodomain of human and mouse-derived OSCAR protein and Fc domain of human immunoglobulin gamma 1 (human IgG1)][human-derived: hOSCAR-Fc (SEQ ID NO: 4) and mouse-derived: mOSCAR-Fc (SEQ ID NO: 5)] were mixed to have concentrations of 2 μg/mL and 1 μg/mL, respectively, for 1.5 hours to bind to each other. Then, the mixture was added to the collagen-adsorbed ELISA plate from which the powdered milk solution was removed in an amount of […] and left to stand at room temperature for 1.5 hours. Subsequently, the plate was washed three times with PBST to remove unreacted antibodies and OSCAR-Fc, and 25 μL of an HRP-conjugated anti-human IgG antibody diluted at 1:3,000 was added to each well and left to stand at room temperature for 1 hour to detect OSCAR-Fc bound to collagen. […] Absorbance was measured at 450 nm to analyze the degree of OSCAR-collagen binding (FIG. 2).

[4] = biological target: T2, mouse OSCAR-Fc (fusion of ectodomain of …); assay: as above
Method: as §3

[5] = biological target: T1, human OSCAR-Fc (fusion of ectodomain of …); assay: serial dilution ELISA, 4-parameter logistic curve fit
[6] = biological target: T2, mouse OSCAR-Fc (fusion of ectodomain of …); assay: bio-layer interferometry (Octet), antibody as ligand on the sensor, mOSCAR as analyte
[7] = biological target: T1, human OSCAR-Fc (fusion of ectodomain of …); assay: BLI (Octet); BLI (Octet); mother clone D11
Method: Therefore, based on intensities of the ELISA signals, expression levels, stability, and activity of the clones whose affinity was matured from the clone D11, D11-B9 was selected, and relative affinity thereof to OSCAR was re-evaluated by way of serial dilution. […] To measure a dissociation constant more accurately, analysis was performed by measuring bio-layer interferometry (BLI) signals using an Octet device. […] In the same manner as in the serial dilution ELISA, the clone D11 seems to have a lower affinity to hOSCAR. A dissociation constant was about 5.6 nM, and a lower response signal was measured (FIG. 10).

[8] = biological target: T1, human OSCAR-Fc (fusion of ectodomain of …); assay: bio-layer interferometry (Octet), antibody as ligand on the sensor, hOSCAR as analyte
[9] = biological target: T2, mouse OSCAR-Fc (fusion of ectodomain of …); assay: BLI (Octet); BLI (Octet); mOSCAR
[10] = biological target: T2, mouse OSCAR-Fc (fusion of ectodomain of …); assay: serial dilution ELISA (re-evaluation); re-evaluation by serial dilution (FIG. 10); mOSCAR
[11] = biological target: T1, human OSCAR-Fc (fusion of ectodomain of …); assay: BLI (Octet); BLI (Octet); hOSCAR
[12] = biological target: T1, human OSCAR-Fc (fusion of ectodomain of …); assay: BLI (Octet)
[13] = biological target: T2, mouse OSCAR-Fc (fusion of ectodomain of …); assay: BLI (Octet)
[14] = biological target: T1, human OSCAR-Fc (fusion of ectodomain of …); assay: serial dilution ELISA, 4-parameter logistic curve fit; first serial dilution ELISA of the IgG clones (FIG. 9)
Method: Next, the EC₅₀ values of the clones were calculated using a 4-parameter logistic curve fit from serial dilution ELISA.

[15] = biological target: T1, human OSCAR-Fc (fusion of ectodomain of …); assay: serial dilution ELISA (re-evaluation); re-evaluation by serial dilution (FIG. 10); hOSCAR

B1: anti-OSCAR scFv B4 (scFv, V domains shown)
VH: EVQLLESGGGLVQPGGSLRLSCAASGFTFSDYAMSWVRQAPGKGLEWVSGIYHGGGNIYYADSVKGRFTISRDNSKNTLYLQMNSLRAEDTAVYYCARAPDEFDYWGQGTLVTVSS
VL: QSVLTQPPSASGTPGQRVTISCSGSSSNIGNNSVTWYQQLPGTAPKLLIYYNSHRPSGVPDRFSGSKPGTSASLAISGLRSEDEADYYCGAWDSSLNGYVFGGGTKLTVL
notes: Single-chain Fv; Tested as periplasm extract
B1: binds [1]; binds [2].

B2: anti-OSCAR antibody B4 (IgG) (antibody, V domains shown)
VH: B1 VH
VL: QSVLTQPPSASGTPGQRVTISCSGSSSNIGNNSVTWYQQLPGTAPKLLIYYNSHRPSGVPDRFSGSKPGTSASLAISGLRSEDEADYYCGAWDSSLNGYVFGGGTKLTVLG
notes: also called clone antibody B4
B2: binds [3]; binds [4].

B3: anti-OSCAR antibody D11 (IgG) (antibody, V domains shown)
VH: EVQLLESGGGLVQPGGSLRLSCAASGFTFSDYYWTWVRQAPGKGLEWVSGSPVFGAANYAQNFQGRFTISRDNSKNTLYLQMNSLRAEDTAVYYCAKAGFTGGHFDIWGQGTLVTVSS
VL: QSVLTQPPSASGTPGQRVTISCSGSSSNIGNNYVSWYQQLPGTAPKLLIYGNSNRPSGVPNRFSGSKSGTSASLAISGLRSEDEADYYCQSYDSSSWLFGGGTKLTVLG
notes: also called clone D11; mother-clone D11
Binder B3 has an EC50 [5] of 520 nM, a Kd [6] of 2.87 nM and a Kd [7] of ~5.6 nM. For the same binder, the Kd [8] was 5.61 nM.

B4: anti-OSCAR antibody D11-B9 (IgG) (antibody, V domains shown)
VH: EVQLLESGGGLVQPGGSLRLSCAASGFTFSDYYWTWVRQAPGKGLEWVSGSPVFGAANYAQNFQGRFTISRDNSKNTLYLQMNSLRAEDTAVYYCAKAGIPGHFDIWGQGTLVTVSS
VL: B3 VL
notes: also called clone D11-B9; D11-69 (misprint in the text)
Work on B4 yielded a Kd [9] of 0.2 nM, an EC50 [10] of 36.8 nM and a Kd [6] of 0.222 nM. The Kd [11] was 0.4 nM, the Kd [8] was 0.41 nM and the “fold affinity against clone D11” value [12] was 10 times. The “fold affinity against clone D11” value [13] was ≥ 10 times, the EC50 [14] was 1.5 nM and the EC50 [15] was 36.8 nM.
